Assay results reported in the Human Domainome abundance scans (Beltran et al. 2025).

B1: Ankyrin-2, residues 3571 to 3650; numbered along this chain, Q01484 (parent)
chain: ERLAYIADHLGFSWTELARELDFTEEQIHQIRIENPNSLQDQSHALLKYWLERDGKHATDTNLVECLTKINRMDIVHLME

Variants of: B1
Assay: abundance fitness (aPCA) (normalised: wild type 0, dead -1); higher = more abundant; growth selection in yeast, the domain comes from the species named
Settings: Homo sapiens

Abundance fitness, by site and new letter:
Q30: R 0 | M 0.008 | E 0.005 | S -0.081 | F -0.023 | G -0.079
N37: K -0.074 | C -0.064 | D -0.015 | L -0.067 | R -0.068 | P -0.249 | F -0.003 | A 0.043 | I -0.01 | M 0.099 | G -0.028 | T -0.093 | S -0.031 | Q -0.069 | H -0.021 | Y -0.171 | W -0.091
A45: H -0.197 | C -0.189 | R -0.002 | V 0.101 | G -0.231 | D 0.097 | L -0.002
K48: H -0.015 | N 0.028 | I -0.164 | D -0.062 | S -0.094 | F -0.053 | T 0.04 | M -0.2 | V -0.076 | Y -0.093 | P -0.848 | A -0.063 | C 0.054 | L 0.02 | Q -0.097 | W -0.171 | R 0.01 | E -0.027
H29: N -0.108 | T -0.005 | L -0.006 | Y -0.294 | P -0.961 | R -0.111 | W -0.137 | Q -0.025 | V 0.035 | S -0.041 | M -0.133
N35: R -0.033 | V -0.084 | I -0.087 | C -0.053 | L -0.128 | Q 0.066 | T -0.071 | S -0.093 | Y -0.07 | F -0.091 | W -0.049 | D -0.296 | M -0.03 | K -0.042 | E -0.043 | A -0.066 | H -0.118
P36: R -0.076 | E -0.044 | W -0.074 | I -0.805 | S -0.117 | H -0.202 | C -0.123 | V -0.14 | N 0.253 | G -0.045 | D -0.031 | Y -0.221 | T -0.052 | F -0.08 | K -0.125 | Q -0.123 | M -0.017 | L -0.081
L47: A -0.191 | C -0.163 | N -0.582 | F 0.046 | S -0.462 | P -1.28 | M 0.123 | D -0.935 | W -0.238 | V -0.034 | G -0.409 | E -0.673 | Q -0.626 | Y -0.148 | H -0.592 | T -0.026 | R -0.541 | I -0.061 | K -0.412
R32: G -0.05 | F -0.088 | I -0.339 | K 0.177 | E 0.058 | H 0.034 | Y -0.384 | Q 0.081 | N -0.206 | P -0.293 | W -0.25 | T -0.127 | S -0.059 | D -0.073 | L -0.034 | M -0.065 | A -0.096 | C -0.074
W50: V -0.017 | R -0.205 | M 0.007 | L 0.012 | G -0.28 | D -0.598 | P -0.664 | N -0.041 | F -0.086 | C -0.053 | Y -0.14 | S -0.081 | T -0.05 | A 0.003 | E -0.316 | K 0.063 | Q 0.003 | H -0.132
L39: Y 0.076 | E -0.027 | I 0.071 | W -0.045 | P -0.016 | C -0.017 | D -0.031 | G -0.108 | R -0.109 | H -0.155 | V -0.043 | S -0.025 | A 0.031 | F -0.013 | K -0.087 | T -0.134 | M -0.042 | Q -0.102
